T1: LAG3 (human, UniProt P18627 23-525)
T1 construct: whole, on cells; The intended T-cell surface marker of the LAG3 variable domains
T1 sequence (looked up): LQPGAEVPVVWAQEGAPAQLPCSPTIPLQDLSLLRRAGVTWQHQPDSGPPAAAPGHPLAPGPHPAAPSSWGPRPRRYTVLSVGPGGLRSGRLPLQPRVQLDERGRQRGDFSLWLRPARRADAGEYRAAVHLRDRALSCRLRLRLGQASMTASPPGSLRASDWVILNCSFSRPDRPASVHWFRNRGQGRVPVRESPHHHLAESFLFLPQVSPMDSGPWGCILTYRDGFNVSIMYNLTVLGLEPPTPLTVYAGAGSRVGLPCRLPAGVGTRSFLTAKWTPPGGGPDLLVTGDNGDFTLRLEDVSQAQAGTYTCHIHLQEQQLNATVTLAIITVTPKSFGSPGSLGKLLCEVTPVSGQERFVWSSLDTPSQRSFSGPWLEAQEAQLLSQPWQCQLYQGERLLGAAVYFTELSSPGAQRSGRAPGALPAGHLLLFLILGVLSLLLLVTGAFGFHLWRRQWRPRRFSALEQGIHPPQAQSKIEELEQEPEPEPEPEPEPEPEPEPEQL


Columns and labels:
Assay in all cases: flow cytometry on activated human T-cells
PD1 = molecular target: T2, PD1 (human, UniProt Q15116 25-288)
T2 construct: whole, on cells; The intended T-cell surface marker of the PD1 variable domains; also called programmed cell death protein 1
T2 sequence (Q15116 25-288): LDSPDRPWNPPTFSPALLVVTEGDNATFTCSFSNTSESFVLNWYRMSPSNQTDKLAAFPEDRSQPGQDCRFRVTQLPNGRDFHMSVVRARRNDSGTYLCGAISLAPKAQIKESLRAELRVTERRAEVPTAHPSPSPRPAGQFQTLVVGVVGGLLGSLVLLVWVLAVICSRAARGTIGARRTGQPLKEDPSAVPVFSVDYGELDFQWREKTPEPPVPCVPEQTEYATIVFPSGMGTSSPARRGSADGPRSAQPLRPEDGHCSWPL
Protocol: (§1) PBMCs were isolated from heparinized leukopaks by use of Ficoll density gradient centrifugation. PBMCs were stimulated overnight with CD2/CD3/CD28 beads from a T-Cell Activation/Expansion Kit (Miltenyi Biotech, Germany) according to the manufacturer's protocol. Activated T-cells were incubated with primary antibody for 1 hour at 4° C., washed in PBS, and then incubated for 30 minutes with fluorescently-labeled secondary anti-Fc specific antibody (Jackson ImmunoResearch, West Grove, Pa.). Activated T-cell samples were analyzed on a FACSCantoII cytometer (BD) and data were analyzed with FlowJo software. Geometric mean fluorescence intensity was compared to DVD-Ig protein concentration by graphing in the GraphPad Prism software package (see FIG. 14).

LAG3 = molecular target: T1, LAG3
Protocol: as §1

4-1BB = molecular target: T3, 4-1BB (human, UniProt Q07011 24-255)
T3 construct: whole, on cells; The intended T-cell surface marker of the 41BB variable domains; also called CD137; TNFRSF9
T3 sequence (Q07011 24-255): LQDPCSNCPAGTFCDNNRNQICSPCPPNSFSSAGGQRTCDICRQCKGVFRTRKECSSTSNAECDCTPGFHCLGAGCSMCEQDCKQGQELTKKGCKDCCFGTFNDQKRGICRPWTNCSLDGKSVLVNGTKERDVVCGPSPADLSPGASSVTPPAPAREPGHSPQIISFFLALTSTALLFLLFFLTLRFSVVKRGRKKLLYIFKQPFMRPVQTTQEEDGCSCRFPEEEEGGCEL
Protocol: as §1

| binding result (PD1) | binding result (LAG3) | binding result (4-1BB) | Binder |
| --- | --- | --- | --- |
| – | binds | binds | DVD2567 (bispecific antibody, Four-chain DVD-Ig; also called DVD2567H/DVD2567L; 41BB/LAG3 DVD-Ig) VH: QVQLQQWGAGLLKPSETLSLTCAVYGGSFSGYYWSWIRQSPEKGLEWIGEINHGGYVTYNPSLESRVTISVDTSKNQFSLKLSSVTAADTAVYYCARDYGPGNYDWYFDLWGRGTLVTVSSASTKGPQVQLQQWGAGLLKPSETLSLTCAVYGGSFSDYYWNWIRQPPGKGLEWIGEINHNGNTNSNPSLKSRVTLSLDTSKNQFSLKLRSVTAADTAVYYCAFGYSDYEYNWFDPWGQGTLVTVSS VL: EIVLTQSPATLSLSPGERATLSCRASQSVSSYLAWYQQKPGQAPRLLIYDASNRATGIPARFSGSGSGTDFTLTISSLEPEDFAVYYCQQRSNWPPALTFGGGTKVEIKRTVAAPEIVLTQSPATLSLSPGERATLSCRASQSISSYLAWYQQKPGQAPRLLIYDASNRATGIPARFSGSGSGTDFTLTISSLEPEDFAVYYCQQRSNWPLTFGQGTNLEIKR |
| – | binds | binds | DVD2568 (bispecific antibody, Four-chain DVD-Ig; also called DVD2568H/DVD2568L; 41BB/LAG3 DVD-Ig) VH: QVQLQQWGAGLLKPSETLSLTCAVYGGSFSGYYWSWIRQSPEKGLEWIGEINHGGYVTYNPSLESRVTISVDTSKNQFSLKLSSVTAADTAVYYCARDYGPGNYDWYFDLWGRGTLVTVSSASTKGPSVFPLAPQVQLQQWGAGLLKPSETLSLTCAVYGGSFSDYYWNWIRQPPGKGLEWIGEINHNGNTNSNPSLKSRVTLSLDTSKNQFSLKLRSVTAADTAVYYCAFGYSDYEYNWFDPWGQGTLVTVSS VL: EIVLTQSPATLSLSPGERATLSCRASQSVSSYLAWYQQKPGQAPRLLIYDASNRATGIPARFSGSGSGTDFTLTISSLEPEDFAVYYCQQRSNWPPALTFGGGTKVEIKRTVAAPEIVLTQSPATLSLSPGERATLSCRASQSISSYLAWYQQKPGQAPRLLIYDASNRATGIPARFSGSGSGTDFTLTISSLEPEDFAVYYCQQRSNWPLTFGQGTNLEIKR |
| – | binds | binds | DVD2569 (bispecific antibody, Four-chain DVD-Ig; also called DVD2569H/DVD2569L; LAG3/41BB DVD-Ig) VH: QVQLQQWGAGLLKPSETLSLTCAVYGGSFSDYYWNWIRQPPGKGLEWIGEINHNGNTNSNPSLKSRVTLSLDTSKNQFSLKLRSVTAADTAVYYCAFGYSDYEYNWFDPWGQGTLVTVSSASTKGPQVQLQQWGAGLLKPSETLSLTCAVYGGSFSGYYWSWIRQSPEKGLEWIGEINHGGYVTYNPSLESRVTISVDTSKNQFSLKLSSVTAADTAVYYCARDYGPGNYDWYFDLWGRGTLVTVSS VL: EIVLTQSPATLSLSPGERATLSCRASQSISSYLAWYQQKPGQAPRLLIYDASNRATGIPARFSGSGSGTDFTLTISSLEPEDFAVYYCQQRSNWPLTFGQGTNLEIKRTVAAPEIVLTQSPATLSLSPGERATLSCRASQSVSSYLAWYQQKPGQAPRLLIYDASNRATGIPARFSGSGSGTDFTLTISSLEPEDFAVYYCQQRSNWPPALTFGGGTKVEIKR |
| – | binds | binds | DVD2570 (bispecific antibody, Four-chain DVD-Ig; also called DVD2570H/DVD2570L) VH: QVQLQQWGAGLLKPSETLSLTCAVYGGSFSDYYWNWIRQPPGKGLEWIGEINHNGNTNSNPSLKSRVTLSLDTSKNQFSLKLRSVTAADTAVYYCAFGYSDYEYNWFDPWGQGTLVTVSSASTKGPSVFPLAPQVQLQQWGAGLLKPSETLSLTCAVYGGSFSGYYWSWIRQSPEKGLEWIGEINHGGYVTYNPSLESRVTISVDTSKNQFSLKLSSVTAADTAVYYCARDYGPGNYDWYFDLWGRGTLVTVSS VL: EIVLTQSPATLSLSPGERATLSCRASQSISSYLAWYQQKPGQAPRLLIYDASNRATGIPARFSGSGSGTDFTLTISSLEPEDFAVYYCQQRSNWPLTFGQGTNLEIKRTVAAPEIVLTQSPATLSLSPGERATLSCRASQSVSSYLAWYQQKPGQAPRLLIYDASNRATGIPARFSGSGSGTDFTLTISSLEPEDFAVYYCQQRSNWPPALTFGGGTKVEIKR |

The next lines start with the binder.

| Binder | binding result (PD1) | binding result (LAG3) | binding result (4-1BB) |
| --- | --- | --- | --- |
| DVD2555 (bispecific antibody, Four-chain DVD-Ig; also called DVD2555H/DVD2555L; PD1/LAG3 DVD-Ig) VH: QVQLVESGGGVVQPGRSLRLDCKASGITFSNSGMHWVRQAPGKGLEWVAVIWYDGSKRYYADSVKGRFTISRDNSKNTLFLQMNSLRAEDTAVYYCATNDDYWGQGTLVTVSSASTKGPQVQLQQWGAGLLKPSETLSLTCAVYGGSFSDYYWNWIRQPPGKGLEWIGEINHNGNTNSNPSLKSRVTLSLDTSKNQFSLKLRSVTAADTAVYYCAFGYSDYEYNWFDPWGQGTLVTVSS VL: EIVLTQSPATLSLSPGERATLSCRASQSVSSYLAWYQQKPGQAPRLLIYDASNRATGIPARFSGSGSGTDFTLTISSLEPEDFAVYYCQQSSNWPRTFGQGTKVEIKRTVAAPEIVLTQSPATLSLSPGERATLSCRASQSISSYLAWYQQKPGQAPRLLIYDASNRATGIPARFSGSGSGTDFTLTISSLEPEDFAVYYCQQRSNWPLTFGQGTNLEIKR | binds | – | – |
| DVD2556 (bispecific antibody, Four-chain DVD-Ig; also called DVD2556H/DVD2556L; PD1/LAG3 DVD-Ig) VH: QVQLVESGGGVVQPGRSLRLDCKASGITFSNSGMHWVRQAPGKGLEWVAVIWYDGSKRYYADSVKGRFTISRDNSKNTLFLQMNSLRAEDTAVYYCATNDDYWGQGTLVTVSSASTKGPSVFPLAPQVQLQQWGAGLLKPSETLSLTCAVYGGSFSDYYWNWIRQPPGKGLEWIGEINHNGNTNSNPSLKSRVTLSLDTSKNQFSLKLRSVTAADTAVYYCAFGYSDYEYNWFDPWGQGTLVTVSS VL: EIVLTQSPATLSLSPGERATLSCRASQSVSSYLAWYQQKPGQAPRLLIYDASNRATGIPARFSGSGSGTDFTLTISSLEPEDFAVYYCQQSSNWPRTFGQGTKVEIKRTVAAPEIVLTQSPATLSLSPGERATLSCRASQSISSYLAWYQQKPGQAPRLLIYDASNRATGIPARFSGSGSGTDFTLTISSLEPEDFAVYYCQQRSNWPLTFGQGTNLEIKR | binds | – | – |
| DVD2557 (bispecific antibody, Four-chain DVD-Ig; also called DVD2557H/DVD2557L; LAG3/PD1 DVD-Ig) VH: QVQLQQWGAGLLKPSETLSLTCAVYGGSFSDYYWNWIRQPPGKGLEWIGEINHNGNTNSNPSLKSRVTLSLDTSKNQFSLKLRSVTAADTAVYYCAFGYSDYEYNWFDPWGQGTLVTVSSASTKGPQVQLVESGGGVVQPGRSLRLDCKASGITFSNSGMHWVRQAPGKGLEWVAVIWYDGSKRYYADSVKGRFTISRDNSKNTLFLQMNSLRAEDTAVYYCATNDDYWGQGTLVTVSS VL: EIVLTQSPATLSLSPGERATLSCRASQSISSYLAWYQQKPGQAPRLLIYDASNRATGIPARFSGSGSGTDFTLTISSLEPEDFAVYYCQQRSNWPLTFGQGTNLEIKRTVAAPEIVLTQSPATLSLSPGERATLSCRASQSVSSYLAWYQQKPGQAPRLLIYDASNRATGIPARFSGSGSGTDFTLTISSLEPEDFAVYYCQQSSNWPRTFGQGTKVEIKR | binds | – | – |
